# From the DeepSol protein solubility set
# Experiment: soluble on expression in E. coli; label from the status in PepcDB or PDB records
row,Sequence,soluble on expression in E. coli
1,MGSSLSNLNDGTNGLAMGPGLGDIPESCVACVFMYLTPPEICNLAGLNRSFRGAASSDSVWEKKLPENYQDLLDLLPPERYHSLSKKDIFAVLSRPIPFDDDNKEVWIDRVTGRVCMAISARGMSITGIEDRRYWNWIPTEESRFHVVAYLQQIWWFEVDGTVRFHLPPGVYSLSFRIHLGRFTKRLGRRVCHFELTHGWDLKPVRFSLSTSDGQEASCEYYLDDVERNEALGKHKRGYWIEYRVGEFIVNGSEPSTEIQWSMKQIDCTHSKGGLCVDSVFINPIGDVKEHKRKAVLKEA,soluble
2,MGSSTSTPAPPPKKNKPEGRKADNQILNSYQKSIVRNAWRHMSQKGPSNCGSTITRRMMARKSTIGDILDRSTLDYHNLQIVEFLQKVMQSLDEPDKISKLCQEIGQKHAKYRRSKGMKIDYWDKLGEAITETIREYQGWKIHRESLRAATVLVSYVVDQLRFGYSRGLHVQGSRETKEDDEE,not soluble
3,MGVFNYEIETTSVIPAARLFKAFILDGDNLVPKVAPQAISSVENIEGNGGPGTIKKINFPEGFPFKYVKDRVDEVDHTNFKYNYSVIEGGPVGDTLEKISNEIKIVATPDGGCVLKISNKYHTKGNHEVKAEQVKASKEMGETLLRAVESYLLAHSDAYN,soluble
4,MGVKTFQFPFAEQLEKVAEQFPTFQILNEEGEVVNEEAMPELSDEQLKELMRRMVYTRILDQRSISLNRQGRLGFYAPTAGQEASQIASHFALEKEDFILPGYRDVPQIIWHGLPLYQAFLFSRGHFHGNQIPEGVNVLPPQIIIGAQYIQAAGVALGLKMRGKKAVAITYTGDGGTSQGDFYEGINFAGAFKAPAIFVVQNNRFAISTPVEKQTVAKTLAQKAVAAGIPGIQVDGMDPLAVYAAVKAARERAINGEGPTLIETLCFRYGPHTMSGDDPTRYRSKELENEWAKKDPLVRFRKFLEAKGLWSEEEENNVIEQAKEEIKEAIKKADETPKQKVTDLISIMFEELPFNLKEQYEIYKEKESK,soluble
5,MGVLITGCGSRGDTEPLVALAARLRELGADARMCLPPDYVERCAEVGVPMVPVGRAVRAGAREPGELPPGAAEVVTEVVAEWFDKVPAAIEGCDAVVTTGLLPAAVAVRSMAEKLGIPYRYTVLSPDHLPSEQSQAERDMYNQGADRLFGDAVNSHRASIGLPPVEHLYDYGYTDQPWLAADPVLSPLRPTDLGTVQTGAWILPDQRPLSAELEGFLRAGSPPVYVGFGSGPAPAEAARVAIEAVRAQGRRVVLSSGWAGLGRIDEGDDCLVVGEVNHQVLFGRVAAVVHHGGAGTTTAVTRAGAPQVVVPQKADQPYYAGRVADLGVGVAHDGPTPTVESLSAALATALTPGIRARAAAVAGTIRTDGTTVAAKLLLEAISRQRSSVPAAKLAAALEHHHHHH,soluble
6,MGVSGYGHDDLGRETLDKVFAEVMGAEAAAVRVQFVSGTHAIACALFGVLRPGDEMLAVVGSPYDTLEEVIGLRGQGQGSLIEFGIKYRQLELTSQGSIDWQTLSTSITDHTRLVLIQRSCGYSWRPSLSIADIEKVVNLVKQQNPHTVCFVDNCYGEFIETQEPTHVGADLMAGSLIKNPGGTIVTAGGYVAGRADLVEAAACRLTAPGIGSYGGATFLEHHHHHH,soluble
7,MGVYVLNVTDNSTFKGILNISDTVTAVNDQTFDSSKDLIDYVSSQKLGDSVKVTYEEDGQTKSAEGKIITLENLEHHHHHH,not soluble
8,MGYRRFLQLVAHEFFHLWNVKRIRPKALEQFDYEAENYTPSLWFSEGATSYYDLLLPLRAGLYGVDSFLEALGKDLSRYLTTPGRKVQPLAESSFDAWVKLYRRDAYSDNQQMSYYLKGQLVCWLLDLEIRNHQPDLEHHHHHH,soluble
9,MGYVGIKIRLTDVAPQAQELFKKESLDVKENKVYLVAATLRPETMYGQTCCFVSPKIDYGVFDAGNGDYFITTERAFKNMSFQNLTPKRGYYKPLFTINGKTLIGSRIDAPYAVNKNLRVLPMETVLATKGTGVVTCVPSDSPDDFVTTRDLANKPEYYGIEKDWVQTDIVPIVHTEKYGDKCAEFLVNDLKIQSPKDSVQLANAKELAYKEGFYNGTMLIGKYKGDKVEDAKPKVKQDLIDEGLAFVYNEPELEHHHHHH,soluble
10,MHDVMELRNLSMVDLQTFNTQFSKITDRYWREIFRRQNDSHHPDHINVSRLQTANIITVLDENLPQGAIQELTITGLIPKPFSSRRCEVMRYLRERLSCSPDVELSFQGDQLRITNPTLNLENVPVLSMEKH,not soluble
11,MHEFSIVQSLLTLIEDYARENNAKSVTKVVVSIGVLSGVEPHLLEMAFNTFKEGTVAEKAELIMEIEKLKIKCMDCGKESEKEELNMLCPGCGSLNTQIISGQDMFLKSLELEVD,soluble
12,MHFVKKVPTTEEEKAAKQKEHTKRSQQFLHVRDKIVAKREKGEYDDEILSLTQAILEKNADIYTFWNIRRTTIELRMEANEKVQQSADAEEEEKTKSSQKIENLLAGELFLSYECIKSNPKSYSAWYQRAWALQRQSAPDFKKELALCEKALQLDCRNFHCWDHRRIVARMAKRSEAEELEFSNKLINDNFSNYSAWHYRSIALKNIHRDEKTGAPKIDDELIASELQKVKNAFFMDAEDQSAWTYTRWLLEVGSGKEFLRPESHTPIELISASFHGNNTTLVFSRAVTIQFLLTFVDTENTTGWRAFSSTSPNPTSSRVWQYLSDTPLRVVTSNPTDLENISWTELNEQPYVNLDRLKTIYDVVEVPQPAYIGELLEDCKQLIELEPKNKWPLYMRTLVLLEYQPIKSYEEIIKNLENLSENLDPKRSELYKSLISRQNLNFSIREQFERILGPDTDWLTCRYSKLTSLEGVEYLAGFVGSADFSGNRLKEIQRIVLPNLKSLTINENPIESLPPSPCLSHLTFFSIAGTQIASVSAVMPFFQTIPSLDRLVFCETPLVEKTEELRAQLPGVRLIPHWL,soluble
13,MHGVEFAPLERQHGSQVLALLRGTLLVPLPRLHQRLEEAYERDARLGLAQVALCRLAGNAEKVVGVLLARVATRRTCCAQVYIDAVAVDAVFQGQGIGSRLLLRVLTPCLPDGLEVREVFLHTPLQATELVAFYRSCGFESDDEVIDNYYPRRWMPQAQALVLRWRPPTAAQHQHEERKGPQDADVS,not soluble
14,MHHFSAGRSNSIGLRQSVSDKGIEIVNLLAPKVEMLGFDLLGAEYLLVPSGAILRLYIDIPFAMQPECMVSIDDCERVSREVSAYLDLEEPISGNYTLEVSSPGLDRRLFTLEQFARHHNHLVKVGLKLQQHGSRRLQGKIVRVEQVGGFVVLLVNGVELAVDFNNIDKARIVPDWSALGLAPLEKSKHDTKKMSQGSKKPSNESAARQAVRGVIR,not soluble
15,MHHHHHHENLYFQSNAMAKSRLLLSELLDQLSFALCIVRNDYVIVKVNEYFESRVIFDGETMQGKNILELFPESADYLKRKIDTALVIESSSFSSWEQKPHLLPFKSSRPVSGEEEQMYQNLEVIPIHSEDGTIEHVCLCVYDVTIQASQQQ,soluble
16,MHHHHHHSSGRENLYFQGSGTIYGWGHNHRGQLGGIEGAKVKVPTPCEALATLRPVQLIGGEQTLFAVTADGKLYATGYGAGGRLGIGGTESVSTPTLLESIQHVFIKKVAVNSGGKHCLALSSEGEVYSWGEAEDGKLGHGNRSPCDRPRVIESLRGIEVVDVAAGGAHSACVTAAGDLYTWGKGRYGRLGHSDSEDQLKPKLVEALQGHRVVDIACGSGDAQTLCLTDDDTVWSWGDGDYGKLGRGGSDGCKVPMKIDSLTGLGVVKVECGSQFSVALTKSGAVYTWGKGDYHRLGHGSDDHVRRPRQVQGLQGKKVIAIATGSLHCVCCTEDGEVYTWGDNDEGQLGDGTTNAIQRPRLVAALQGKKVNRVACGSAHTLAWSTSKP,soluble
17,MHHHHHHSSGVDLGTENLYFQSMKQYEHVTRDLNPEDFWEIIGELGDGAFGKVYKAQNKETSVLAAAKVIDTKSEEELEDYMVEIDILASCDHPNIVKLLDAFYYENNLWILIEFCAGGAVDAVMLELERPLTESQIQVVCKQTLDALNYLHDNKIIHRDLKAGNILFTLDGDIKLADFGVSAKNTRTIQRRDSFIGTPYWMAPEVVMCETSKDRPYDYKADVWSLGITLIEMAEIEPPHHELNPMRVLLKIAKSEPPTLAQPSRWSSNFKDFLKKCLEKNVDARWTTSQLLQHPFVTVDSNKPIRELIAEAKAEVTEEVEDGKE,soluble
18,MHHHHHHSSGVDLGTENLYFQSNAMKKEIASHLLEIGAVFLQPNDPFTWSSGMKSPIYCDNRLTLSYPKVRQTIAAGLEELIKEHFPTVEVIAGTATAGIAHAAWVSDRMDLPMCYVRSKAKGHGKGNQIEGKAEKGQKVVVVEDLISTGGSAITCVEALREAGCEVLGIVSIFTYELEAGKEKLEAANVASYSLSDYSALTEVAAEKGIIGQAETKKLQEWRKNPADEAWITA,soluble
19,MHHHHHHSSGVDLGTENLYFQSNAMTAPSQVLKIRRPDDWHVHLRDGDMLKTVVPYTSEIYGRAIVMPNLASPITTVDAAIAYRQRILDAVPAGHDFTPLMTCYLTDSLDADELERGFHEGVFTAAKLYPANATTNSSHGVTSVDAIMPVLERMEKLGIPLLVHGEVTHADVDIFDREARFIDTVMEPLRQRLTALKVVFEHITTKDAAQYVRDGNDYLAATITPQHLMFNRNDMLVGGIRPHLYCLPILKRNIHQQALRELVASGFTRAFLGTDSAPHSRHRKETSCGCAGCFNAPSALGSYAAVFEEMNALAHFEAFCSLNGPQFYGLPMNTGWVELVRDEQQIPGNIALADDSLVPFLAGETVRWSVKK,soluble
20,MHHRHLQVLRTDASGMPLEWIGYQEAAKLYYLEQVAYGCGSILFRLRGGINAKTGQRSRIEVNSIVATFGHANSGYKVDMGYVPPLNNAALFRRDGHICLYCGNLFRHSELSRDHIQPTSRGGSDTWNNVVTACKRCNNHKAGRTPEEAKMQLLAIPFTPTHAEYIYLQGRRVLADQMEFLKAHFPRKSPLHQRLSLEHHHHHH,not soluble
21,MHIAIIGAAGMVGRKLTQRLVKDGSLGGKPVEKFTLIDVFQPEAPAGFSGAVDARAADLSAPGEAEKLVEARPDVIFHLAAIVSGEAELDFDKGYRINLDGTRYLFDAIRIANGKDGYKPRVVFTSSIAVFGAPLPYPIPDEFHTTPLTSYGTQKAICELLLSDYSRRGFFDGIGIRLPTICIRPGKPNAAASGFFSNILREPLVGQEAVLPVPESIRHWHASPRSAVGFLIHGAMIDVEKVGPRRNLSMPGLSATVGEQIEALRKVAGEKAVALIRREPNEMIMRMCEGWAPGFEAKRARELGFTAESSFEEIIQVHIEDELGGSLK,soluble
22,MHISFIIPAFNEEQLIEPCLRSITDAVAANRSYGYTSEIIVVDNNSTDATAQLAKQAGAQVVFEPVNHIARARTAGAGAARGDWLVFMDADCLLNAGLVGDIFELIRQGRHIGAGSTLYMPGQPWWAEMLLRIWTFLSVQLGWAAGALIVCNAAAFREVGGFDLTLYAAEEIDLSQKLKKYGRKRKLKFAILNAHPLETSSRKTQLYSGWEIVGQFLRLVLSPLGTLRNKKKLPMWYDGRRLEHHHHHH,soluble
23,MHIYRYEENPLITPEDVPPHHDGFEVIGAFNAGVARFQGEVLLLLRVAERPVSDDPNIVKAPVWNPKTGKVDVYEFRKDDPRYDFSDPRVIREAGAERFAYLTSLSYLRLARSQDGRRFVIDDRPFVYPSNELETFGIEDPRITYIDGTYYIYFSAVSPKGVGEAMVSTTDFRTVTHHGMIFAPENKDVLIFPEKINGKYYALHRPVPRSNGRPEVWIAESENLLHWGNHRFLFGLREGKWDSARIGGGAVPIKTEYGWLELYHGASDDHRYCMGAVLLDLNDPAKVIARSERPLVEPEADYEVNGFFGRVVFSCGALVDGDIVKMYYGAADTSMACVELKLDEILDSLVKV,soluble
24,MHLYDKRPGGGASFSQILGQAKNRQGIFFNTTFAVMGHVAKASGRVTETDIRIATLLMDQMRLTGDARKEAQQAFREGKEPDFDLCSSLQAFRAVTQGRQELVQMFIEIQIQTALSDGELDAAEHAILMTVAQELGYGRLEHHHHHH,not soluble
